This note sets out measurements from publication PMC9330529.

One may read the pKd as −log10 of the Kd, conventionally taken in molar units. Low values mean a large Kd, high ones a small Kd.

Series [1] concerns the target SARS-CoV-2 spike protein Delta (SARS-CoV-2 (Delta variant)) (UniProt P0DTC2). The experiment in a line: streptavidin bead fluorescence binding.
Series [2] has the same target. The experiment in a line: flow cytometry on Ni-NTA beads. For orientation: In flow cytometry, cells or beads pass a laser one at a time.

pKd: −log10 of the molar value.

With “CGCAGCACCCAAGAACAAGGACTGCTTAGGATTGCGATAGGTTCGGAAAAAAGGCGGGTTCCTAGACTTGTACTCAGCCT [S1B6C3-A5-S2A2C1]”, the values for the pKd in series [1] and in series [2] were 7.47 and 7.49, respectively.
